For one assay, the target named is FcRn (UniProt P55899). The experiment in a line: SPR; association with FcRn at pH 6.0, dissociation at pH 7.4. (Surface plasmon resonance follows binding to a sensor surface in real time, without labels.)
The target in assay [1] is human glucagon receptor (human) (UniProt P47871).
For a further assay, the target named is FcγRIIIB (UniProt O75015). Description: SPR; BIACORE T200, 25 °C; FcγRs immobilised by amine coupling on CM5 chips; test materials flowed over (HMC001 and I.V.-Globulin SN 31.25-500 nM, HM15136 30.38-486 nM); steady-state affinity fit.
Sequence of FcγRIIIB (O75015 17-200): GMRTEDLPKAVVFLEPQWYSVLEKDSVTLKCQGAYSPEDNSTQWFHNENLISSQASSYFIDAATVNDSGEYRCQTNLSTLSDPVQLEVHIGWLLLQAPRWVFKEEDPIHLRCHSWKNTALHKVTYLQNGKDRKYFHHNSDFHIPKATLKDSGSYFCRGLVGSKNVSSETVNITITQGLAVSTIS
The target of another assay is FcγRIIIA (UniProt P08637). The description is as above.
Sequence of FcγRIIIA (P08637 17-208): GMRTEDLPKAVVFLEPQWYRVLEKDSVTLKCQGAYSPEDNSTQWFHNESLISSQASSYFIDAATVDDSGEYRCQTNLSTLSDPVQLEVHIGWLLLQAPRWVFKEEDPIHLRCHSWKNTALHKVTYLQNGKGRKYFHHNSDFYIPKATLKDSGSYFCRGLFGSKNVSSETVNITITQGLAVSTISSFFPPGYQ
The target of the next assay is FcγRIIA (UniProt P12318). The assay is described as above.
Sequence of FcγRIIA (P12318 34-217): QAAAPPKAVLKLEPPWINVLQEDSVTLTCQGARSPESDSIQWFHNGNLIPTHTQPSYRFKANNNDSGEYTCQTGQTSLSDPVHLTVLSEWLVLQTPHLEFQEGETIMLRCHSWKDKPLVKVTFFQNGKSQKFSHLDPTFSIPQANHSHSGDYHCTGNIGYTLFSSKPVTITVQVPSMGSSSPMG
A further assay addresses FcγRIA (UniProt P12314). The assay is described as above.

Usually Kd stands for the constant that tells how readily two partners part at equilibrium. A lower Kd goes with tighter binding.

Sequence of FcRn (P55899 24-365, chain 1 of 2): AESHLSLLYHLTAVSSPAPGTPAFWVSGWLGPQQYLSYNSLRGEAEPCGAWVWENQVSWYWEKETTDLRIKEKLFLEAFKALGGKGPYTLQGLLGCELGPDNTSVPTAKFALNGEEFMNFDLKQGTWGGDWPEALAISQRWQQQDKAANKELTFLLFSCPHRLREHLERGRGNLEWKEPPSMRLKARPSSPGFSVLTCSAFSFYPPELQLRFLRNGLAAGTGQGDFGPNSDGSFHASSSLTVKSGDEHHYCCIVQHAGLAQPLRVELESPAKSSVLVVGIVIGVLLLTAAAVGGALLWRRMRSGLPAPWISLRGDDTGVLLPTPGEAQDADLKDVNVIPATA
Sequence of FcRn (P61769 21-119, chain 2 of 2, further chain): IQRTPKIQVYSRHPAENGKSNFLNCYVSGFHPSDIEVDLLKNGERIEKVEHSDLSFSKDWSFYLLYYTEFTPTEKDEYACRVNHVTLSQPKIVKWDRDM
Sequence of FcγRIA (P12314 16-292): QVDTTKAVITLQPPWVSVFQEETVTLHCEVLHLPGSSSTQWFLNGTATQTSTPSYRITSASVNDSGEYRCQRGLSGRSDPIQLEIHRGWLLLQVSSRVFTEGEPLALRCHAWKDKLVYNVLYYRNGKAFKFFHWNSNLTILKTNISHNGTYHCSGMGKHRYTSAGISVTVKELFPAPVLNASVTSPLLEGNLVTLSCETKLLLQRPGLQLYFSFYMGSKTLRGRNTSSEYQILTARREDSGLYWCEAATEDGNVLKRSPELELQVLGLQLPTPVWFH

In turn, HM15136 came in with a Ka with FcRn of 420000. In assay [1], this substance registered an EC50 of intracellular cAMP generation in hGCGR/CHO cells (0.0015 to 1555.2 nM HM15136) of 0.024 nM.

Regarding IgG1 (=I.V.-Globulin SN) (antibody), the dissociation constant Kd is 1590 nM with FcγRIIIB, 209 nM in the assay with FcγRIIIA, 184 nM in the assay with FcγRIIA and 26.7 nM with FcγRIA.

The values above are taken from article PMC9537296, “A novel glucagon analog with an extended half-life, HM15136, normalizes glucose levels in rodent models of congenital hyperinsulinism” (Scientific Reports, 2022).
